Values of other authors in article PMC5590664.
pKd: −log10 of the molar value.

Biological target: HIV-1 capsid protein (full-length) (Human immunodeficiency virus 1) (UniProt O93182)

Sequence of HIV-1 capsid protein (full-length) (O93182 133-363): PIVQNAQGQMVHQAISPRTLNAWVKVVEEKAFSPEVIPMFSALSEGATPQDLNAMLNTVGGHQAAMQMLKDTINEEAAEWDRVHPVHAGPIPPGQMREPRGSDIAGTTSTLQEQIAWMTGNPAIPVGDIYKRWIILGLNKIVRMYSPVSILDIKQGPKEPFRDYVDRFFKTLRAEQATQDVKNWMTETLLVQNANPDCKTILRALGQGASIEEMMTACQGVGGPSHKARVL

Substance: HIV-1 capsid protein (full-length) (from UniProt O93182)
- pKd: 4.40
